This note sets out measurements from paper PMC11686378, “Communication between DNA polymerases and Replication Protein A within the archaeal replisome” (Nature Communications, 2024).

The labels stand for the following.
B1: Histidine-tagged Rpa2^WH (Rpa2 residues 178-268), C-terminal winged-helix domain of P. abyssi Rpa2 (domain or fragment)
chain: MGKHHHHSGHHHTGHHHHSGSHHHTSSSASTGENLYFQGTGGIMMEERSIEEPMEELLEEEIPEEKEENELLEKAKEDILNILRQKRTAISRKYILKKLGDKYDEETIDDAITELLAQGEIYEPETGYYKLL
B2: DNA primase PriSL (PriS-PriL heterodimer) from P. abyssi, in solution (complex, Pyrococcus abyssi)
chain 1: MLLREVTKEERKEFYSNEWNAKQIPDFILQNLDKREFGFDHTGEGPSDRKNSYTDVRDLEDYIKATAPYAVYSSVAFYEKPQEMEGWLGAELVFDIDAKDLPLRRCNHEPGKVCPICLNDAKEIARDTLIVLKEELGFEDVHVVYSGRGYHIRVMDGWALSLDSKSRERILSFISASEIEDHSEFRKMLLERRGWFVLNHGYPRVFRLRFGYFILRVKVEHLINFGIRKNIAKRILDNKETIYEEFVRKGILAAFPDGVGIESLAKLFALSTRFSKAYFDGRVTVDLKRILRLPSTLHSKVGLIAKYIGNNERDVMRFNPFKHAVPKFRRKEVKEEYKRFLEENF
chain 2: MLDPFSEKAKELLKEFGSINDFLNSIPRIVDVEEVIERVKIASDRKLLEGFVDIEDIKDLAQFYALLGALSYSPYGLELELVKKANILLYSERIRREKEIRPEEISLRINKAIEFPIDDLKKIERVFGKLPEYTIHLAEFLDLIPGERLSEYYIYNGNVYLRKEDLIKVWMKAFERNIEKSVNMLYEIRDELPGFFREVLGGIKEVAEQEFGKSGEVKAGTLRPDLFPPCVKNALKGVPQGLRNYAITVLLTSFLSYARICPNPPRRNVRVKDCIDDIRIITDEILPLIIEAANRCSPPLFEDQPNEIKNIWYHLGFGYTANPKLEDSGNSTWYFPPNCDKIRANAPQLCTPDKHCKYVRNPLTYYLRRLYLEGRKNASKGGNERGEKRVLQQ
notes: PriS, catalytic small subunit of the DNA primase, Pyrococcus abyssi; PriL, large subunit of the DNA primase, Pyrococcus abyssi, with its C-terminal 4Fe-4S domain; Analyte in BLI on His-Rpa2^WH and on RPA-ssDNA filaments; also called full-length PriSL; source: E. coli BL21 Star (DE3), polycistronic PriS-PriL, purified (heat 60 °C, HisTrap, heparin, SEC)

Holding throughout (settings): both partners purified
The target in assay [1] is B2. The assay is described as follows: BLI; histidine-tagged Rpa2^WH captured on Ni-NTA sensors; PriSL (7.81-500 nM) or PolD (15.62-1000 nM) in solution; steady-state analysis; 25 °C, buffer E with 0.2 mg/ml BSA. (In BLI a coated tip is dipped into the sample, and binding shifts an interference pattern.)
Assay [2] has as its target T1, Replicative DNA polymerase PolD (DP1-DP2 heterodimer) from P. abyssi, in solution (Pyrococcus abyssi).
T1 construct: DP1, proofreading small subunit of DNA polymerase D, Pyrococcus abyssi; DP2, polymerization large subunit of DNA polymerase D, Pyrococcus abyssi; also called unlabeled PolD; source: E. coli BL21 Star (DE3), purified (heat 60 °C, HisTrap, heparin, SEC)
Described as above.

For assay [3], the target named is T2, RPA^ΔWH (Rpa1/Rpa2(1-179)/Rpa3), RPA lacking the winged-helix domain of Rpa2 (Pyrococcus abyssi).
T2 chain 1: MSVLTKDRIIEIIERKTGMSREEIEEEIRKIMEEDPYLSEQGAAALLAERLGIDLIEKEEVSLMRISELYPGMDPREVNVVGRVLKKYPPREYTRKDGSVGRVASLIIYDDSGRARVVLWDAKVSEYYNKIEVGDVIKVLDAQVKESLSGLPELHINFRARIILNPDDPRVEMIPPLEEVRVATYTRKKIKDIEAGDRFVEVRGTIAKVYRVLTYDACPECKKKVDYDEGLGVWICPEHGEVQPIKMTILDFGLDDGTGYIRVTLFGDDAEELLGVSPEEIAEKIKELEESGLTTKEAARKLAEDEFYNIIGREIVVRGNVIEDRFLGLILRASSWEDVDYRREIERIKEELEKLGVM
T2 chain 2: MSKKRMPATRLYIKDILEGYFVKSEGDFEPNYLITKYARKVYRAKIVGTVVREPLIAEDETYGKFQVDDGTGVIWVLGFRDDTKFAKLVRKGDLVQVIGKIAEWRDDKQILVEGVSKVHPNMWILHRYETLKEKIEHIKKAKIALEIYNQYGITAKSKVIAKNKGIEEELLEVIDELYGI
T2 chain 3: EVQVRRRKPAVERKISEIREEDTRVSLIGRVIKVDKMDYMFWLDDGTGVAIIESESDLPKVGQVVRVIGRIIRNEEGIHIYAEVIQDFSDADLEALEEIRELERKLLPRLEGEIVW
The assay is described as follows: BLI; RPA or RPA^ΔWH nucleoprotein filaments on a 3'-TEG-biotin 50-nt ssDNA held on streptavidin sensors; PriSL (1.56-100 nM) or PolD (15.62-1000 nM) in solution; steady-state analysis; 25 °C, buffer E with 0.2 mg/ml BSA.

On to B1, for which the Kd – broadly, the equilibrium constant for the complex coming apart – stood at 25 ± 9 nM in assay [1] and 98 ± 49 nM in assay [2]. For B2, in assay [3], the “fold weaker interaction than with wild-type RPA filaments (at 12.5 nM PriSL)” value stood at 7 fold.
